Reference: the supplement of paper PMC11908140

B1: library; numbered along this chain (parent)
chain: MRKPRAAVGSGHRKQAASQEGRQKHAKNNSQAKPSACDGLARQPEEVVLQASVSSYHLFRDVAEVTAFRGSLLSWYDQEKRDLPWRRRAEDEMDLDRRAYAVWVSEVMLQQTQVATVINYYTGWMQKWPTLQDLASASLEEVNQLWAGLGYYSRGRRLQEGARKVVEELGGHMPRTAETLQQLLPGVGRYTAGAIASIAFGQATGVVDGNVARVLCRVRAIGADPSSTLVSQQLWGLAQQLVDPARPGDFNQAAMELGATVCTPQRPLCSQCPVESLCRARQRVEQEQLLASGSLSGSPDVEECAPNTGQCHLCLPPSEPWDQTLGVVNFPRKASRKPPREESSATCVLEQPGALGAQILLVQRPNSGLLAGLWEFPSVTWEPSEQLQRKALLQELQRWAGPLPATHLRHLGEVVHTFSHIKLTYQVYGLALEGQTPVTTVPPGARWLTQEEFHTAAVSTAMKKVFRVYQGQQPGTCMGSKRSQVSSPCSRKKPRMGQQVLDNFFRSHISTDAHSLNSAAQ

Variants of: B1
Experiment: 8OG:A repair function score (normalized; synonymous = 0, nonsense = -1) (normalized log-likelihood score); higher = more repair activity (WT-like)
Details: with 8OG:A DNA repair reporter (GFP) in HEK-293 MUTYH KO cells
Procedure: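 Saturation mutagenesis (NNN codon scan) of the MUTYH cDNA (521-aa nuclear isoform NM_001048174.1 / NP_001041639), stably expressed under doxycycline induction in HEK-293 MUTYH knockout cells. Cells were co-transfected with an 8OG:A-bearing GFP repair reporter plus mCherry and sorted 72 h later into GFP+ and GFP− bins, three replicates per tile. The Rosace log2 enrichment (GFP+ vs GFP−) was converted per tile to a normalized function score with synonymous variants centered at 0 and nonsense variants (codons 1-471) at -1; low-abundance variants were removed.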

8OG:A repair function score of substitutions, site by site:
D82: Y -0.0661 | T -0.0186 | R -0.0624 | S -0.0969 | N 0.00375 | I -0.0384 | M -0.077 | F -0.22 | Q -0.0442 | H -0.148 | C -0.0489 | W -0.00177 | L -0.0723 | V -0.0236 | A -0.0548 | K -0.079 | P -0.00741 | G -0.0955 | E -0.035
L72: D -1.11 | S -0.775 | W -0.994 | G -1.17 | H -1.08 | M -0.732 | K -1.1 | T -0.206 | C -0.229 | I -0.0959 | P -1.34 | A -0.207 | N -2.41 | V -0.446 | R -1.65 | Q -1.44 | F -1.08 | E -1.21 | Y -1.03
R87: S 0.00689 | D -0.0278 | L -0.0416 | W -0.0564 | N -0.000681 | M -0.0864 | A -0.0289 | K 0.00471 | I -0.0226 | G -0.0274 | E -0.0603 | Q -0.219 | C -0.0638 | Y -0.052 | H -0.0676 | P -0.0432 | T -0.0213 | V -0.0326 | F -0.0196
P84: H -0.482 | W -1.29 | L -0.233 | C -0.445 | G -0.775 | T -0.154 | A -0.138 | M -1.8 | Y -0.697 | K -0.876 | E -0.125 | S -0.324 | R -1.06 | I -0.257 | N -0.796 | V -0.206 | Q -0.242 | D -0.332 | F -0.723
K80: T -0.469 | H 0.00371 | E -0.31 | R -0.0152 | C -0.0206 | V -0.423 | A -7.55e-05 | P -0.105 | Y -0.271 | W -0.847 | S -0.227 | I -0.35 | Q -0.0315 | G -0.194 | D -1.37 | M -0.162 | N -0.162 | F -0.364 | L -0.278
Q78: C -0.996 | R 0.00285 | V 0.00652 | H -0.0658 | S 0.00682 | K -0.0833 | N -0.105 | Y -0.12 | G -0.0331 | I -0.00974 | L -0.0196 | F -0.0455 | P -0.138 | E 0.00685 | T -0.00936 | W -0.0301 | D -0.00768 | A -0.00817 | M -0.517
L73: N -0.718 | G -0.786 | P -1.57 | A -0.307 | S -0.594 | I -0.0679 | C -0.0699 | V -0.108 | Q -0.236 | M -0.0108 | Y -2.08 | K -0.453 | D -1.01 | E -0.46 | W -0.824 | R -0.593 | H -0.344 | T -0.136 | F -0.261
Y76: E -1.5 | G -1.14 | V -1.41 | A -1.05 | I -1.28 | T -1.06 | H -0.27 | R -1.37 | W -0.136 | C -1.48 | D -1.25 | K -1.41 | L -1.17 | P -1.8 | Q -1.53 | F -0.0268 | N -1.1 | S -1.16 | M -1.2
S71: Y -0.0584 | W 0.000735
E79: R 0.00654 | G -0.00351 | F 0.000542 | W -0.0018 | L -0.0186 | Q -0.0185 | Y -0.00762 | A 0.00477 | I 0.00691 | M -0.00235 | D -0.145 | N -0.0384 | H -0.0574
